Laboratory results: patent US20100260775A1 (Pfizer, published 2010)
Like-named read-outs stand apart in the source and are kept apart here.

Tests used:
Experiment in all cases: cell-based or functional assay
human NGF = human NGF (human, UniProt P01138 122-241, limits assumed)
rat NGF [1] = target: T1, rat NGF (rat, UniProt P25427 122-241, limits assumed)
rat NGF [2] = target: T1, rat NGF; remark: listed apart in the source
rat NGF [3] = target: T1, rat NGF; remark: listed apart in the source

T1 sequence (P25427 122-241 limits assumed): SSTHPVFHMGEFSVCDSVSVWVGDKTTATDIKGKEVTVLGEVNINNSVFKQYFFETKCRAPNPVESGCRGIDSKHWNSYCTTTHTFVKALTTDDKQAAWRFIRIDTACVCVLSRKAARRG
Sequence of human NGF (P01138 122-241 limits assumed): as the sequence (P25427 122-241 limits assumed) above, with T3S, V6I, M9R, T37M, A60D, E65D, T92M, D94G, A117V, G120A counted along it

| Molecule | IC50, inhibition of human NGF-dependent survival of mouse E13.5 trigeminal neurons, 1.5 pM NGF (human NGF) [pM] | IC50, inhibition of human NGF-dependent survival of mouse E13.5 trigeminal neurons, 15 pM NGF (human NGF) [pM] | IC50, inhibition of rat NGF-dependent survival of mouse E13.5 trigeminal neurons, 1.5 pM NGF (rat NGF [1]) [pM] | IC50, inhibition of rat NGF-dependent survival of mouse E13.5 trigeminal neurons, 15 pM NGF (rat NGF [1]) [pM] | IC50, inhibition of rat NGF-dependent survival of mouse E13.5 trigeminal neurons, 1.5 pM NGF (rat NGF [2]) [pM] | IC50, inhibition of rat NGF-dependent survival of mouse E13.5 trigeminal neurons, 15 pM NGF (rat NGF [2]) [pM] | IC50, inhibition of NGF-dependent survival of mouse E13.5 trigeminal neurons, 15 pM rat NGF (rat NGF [3]) [pM] |
| --- | --- | --- | --- | --- | --- | --- | --- |
| mouse antibody 911 (Fab) | 63.5 | 322 | 34.6 | 161 | – | – | – |
| 3C (Fab) (Fab, V domains shown) VH: QVQLQESGPGLVKPSETLSLTCTVSGFSLIGYDLNWIRQPPGKGLEWIGIIWGDGTTDYNSAVKSRVTISKDTSKNQFSLKLSSVTAADTAVYYCARGGYWYATSYYFDYWGQGTLVTVS VL: DIQMTQSPSSLSASVGDRVTITCRASQSISNNLNWYQQKPGKAPKLLIYYTSRFHSGVPSRFSGSGSGTDFTFTISSLQPEDIATYYCQQERTLPYTFGQGTKLEIKR | 5.6 | 80.9 | – | – | 6 | 31.6 | – |
| H19-L129 (Fab, V domains shown) VH: QVQLQESGPGLVKPSETLSLTCTVSGFSLIGYDLNWIRQPPGKGLEWIGIIWGDGTTDYNSAVKSRVTISKDTSKNQFSLKLSSVTAADTAVYYCARGGYYYGTSYYFDYWGQGTLVTVS VL: DIQMTQSPSSLSASVGDRVTITCRASQSISNNLNWYQQKPGKAPKLLIYYTSRFHSGVPSRFSGSGSGTDFTFTISSLQPEDIATYYCQQSKTLPYTFGQGTKLEIKR | 9.6 | 60.1 | – | – | 6 | 31 | – |
| 8L2-6D5 (CDR-grafted antibody with framework mutation V71K) (Fab, V domains shown) VH: QVQLQESGPGLVKPSETLSLTCTVSGFSLIGYDINWIRQPPGKGLEWIGMIWGDGTTDYNSALKSRVTISKDTSKNQFSLKLSSVTAADTAVYYCARGGYYYGTSYYFDYWGQGTLVTVS VL: DIQMTQSPSSLSASVGDRVTITCRASQDISNHLNWYQQKPGKAPKLLIYYISRFHSGVPSRFSGSGSGTDFTFTISSLQPEDIATYYCQQSKTLPYTFGQGTKLEIKR | 462 | 1580 | – | – | 169 | 730 | – |
| antibody E3 (Fab) (Fab, V domains shown) VH: QVQLQESGPGLVKPSETLSLTCTVSGFSLIGYDLNWIRQPPGKGLEWIGIIWGDGTTDYNSAVKSRVTISKDTSKNQFSLKLSSVTAADTAVYYCARGGYWYATSYYFDYWGQGTLVTVS VL: DIQMTQSPSSLSASVGDRVTITCRASQSISNNLNWYQQKPGKAPKLLIYYTSRFHSGVPSRFSGSGSGTDFTFTISSLQPEDIATYYCQQEHTLPYTFGQGTKLEIKR | < 1.2 | < 21 | – | – | < 1.3 | < 8.3 | ~31.6 |
